Experiment [1] deals with hCD40 (as used in SPR) (human) (UniProt P25942). In words: SPR.
In experiment [2] the target is hCD40 expressed on Jurkat cells (human, UniProt P25942). Description: cell-based or functional assay.
Chain of hCD40 expressed on Jurkat cells (P25942 21-277): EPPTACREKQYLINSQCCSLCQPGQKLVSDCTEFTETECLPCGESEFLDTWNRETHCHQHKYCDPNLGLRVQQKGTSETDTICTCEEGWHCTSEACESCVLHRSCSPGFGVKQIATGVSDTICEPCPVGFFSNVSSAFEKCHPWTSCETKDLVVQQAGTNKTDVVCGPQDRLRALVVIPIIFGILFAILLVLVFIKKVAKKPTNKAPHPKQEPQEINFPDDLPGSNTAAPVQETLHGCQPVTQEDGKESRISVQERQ

Chain of hCD40 (as used in SPR) (human) (P25942 21-277): as above

In experiment [1], “ChiLob7/4 hIgG2 wild type (from UniProt P01859)” yielded an equilibrium dissociation constant (Kd) of 1.97 nM and a koff of 0.000164 s⁻¹.

B1: ChiLob7/4 hIgG2 C232S κC214S (cross-over) (antibody, V domains shown)
VH: EVQLQQSGPDLVKPGASVKISCKTSGYTFTEYIMHWVKQSHGKSLEWIGGIIPNNGGTSYNQKFKDKATMTVDKSSSTGYMELRSLTSEDSAVYYCTRREVYGRNYYALDYWGQGTLVTVSS
VL: DIQMTQTTSSLSASLGDRVTITCSASQGINNYLNWYQQKPDGTVKLLIYYTSSLHSGVPSRFSGSGSGTDYSLTISNLEPEDIATYYCQQYSNLPYTFGGGTKLEIK
Take B1: the “EC50 of NF-κB activation (percentage of GFP+ cells, flow cytometry, 24 h) in NF-κB/Jurkat/GFP reporter cells expressing hCD40” value in experiment [2] turned out to be 4.59 ng/mL.

B2: ChiLob7/4 hIgG2 C232S + K228C κC214S (cross-over + K228C) (antibody, V domains shown)
VH: B1 VH
VL: B1 VL
B2: the “EC50 of NF-κB activation (percentage of GFP+ cells, flow cytometry, 24 h) in NF-κB/Jurkat/GFP reporter cells expressing hCD40” value in experiment [2] worked out at 1.55 ng/mL.

B3: ChiLob7/4 hIgG2 C232S + T222C κE123C + κC214S (cross-over + T222C κE123C) (antibody, V domains shown)
VH: B1 VH
VL: B1 VL
For the molecule B3, the “EC50 of NF-κB activation (percentage of GFP+ cells, flow cytometry, 24 h) in NF-κB/Jurkat/GFP reporter cells expressing hCD40” value in experiment [2] was 1.55 ng/mL.

The values above are taken from article PMC11993666 (Nature Communications, 2025).
